Assay results: the supplement of paper PMC10567573

B1: TRIM15 (parent)
chain: QSSGKILLCPLCQEEEQAETPMAP

Variants of: B1
Assay: protein stability index of a GFP-peptide fusion (GPS, HEK-293T) (PSI 1-6); higher = more stable
Details: c terminus: a fixed tail appended
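Further: lentivirally expressed fusions sorted by FACS into six bins by GFP to DsRed ratio, PSI derived from sequencing read proportions per bin multiplied by bin number.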

Variant | protein stability index
QSSGKKLLCPLCQEEEQAETPMAP [I6K] | 4.23
QSSGKTLLCPLCQEEEQAETPMAP [I6T] | 3.89
QSSGKRLLCPLCQEEEQAETPMAP [I6R] | 3.41
QSSGKMLLCPLCQEEEQAETPMAP [I6M] | 3.72
QSSGKFLLCPLCQEEEQAETPMAP [I6F] | 3.76
QSSGKIKLCPLCQEEEQAETPMAP [L7K] | 4.51
QSSGKIQLCPLCQEEEQAETPMAP [L7Q] | 3.94
QSSGKISLCPLCQEEEQAETPMAP [L7S] | 3.39
QSSGKIILCPLCQEEEQAETPMAP [L7I] | 3.4
QSSGKIALCPLCQEEEQAETPMAP [L7A] | 3.65
QSSGKICLCPLCQEEEQAETPMAP [L7C] | 3.77
QSSGKITLCPLCQEEEQAETPMAP [L7T] | 3.31
QSSGKIVLCPLCQEEEQAETPMAP [L7V] | 3.48
QSSGKIDLCPLCQEEEQAETPMAP [L7D] | 4.35
QSSGKIMLCPLCQEEEQAETPMAP [L7M] | 3.51
QSSGKIPLCPLCQEEEQAETPMAP [L7P] | 4.42
QSSGKIHLCPLCQEEEQAETPMAP [L7H] | 3.62
QSSGKIYLCPLCQEEEQAETPMAP [L7Y] | 3.15
QSSGKIWLCPLCQEEEQAETPMAP [L7W] | 3.29
QSSGKIGLCPLCQEEEQAETPMAP [L7G] | 3.9
QSSGKINLCPLCQEEEQAETPMAP [L7N] | 4.21
QSSGKIFLCPLCQEEEQAETPMAP [L7F] | 3.47
QSSGKILLFPLCQEEEQAETPMAP [C9F] | 4.38
QSSGKILLMPLCQEEEQAETPMAP [C9M] | 4.5

Variant | protein stability index
QSSGKILLLPLCQEEEQAETPMAP [C9L] | 4
QSSGKILLTPLCQEEEQAETPMAP [C9T] | 5.22
QSSGKILLWPLCQEEEQAETPMAP [C9W] | 4.24
QSSGKILLKPLCQEEEQAETPMAP [C9K] | 5.6
QSSGKILLQPLCQEEEQAETPMAP [C9Q] | 3.61
QSSGKILLNPLCQEEEQAETPMAP [C9N] | 5.59
QSSGKILLIPLCQEEEQAETPMAP [C9I] | 3.84
QSSGKILLPPLCQEEEQAETPMAP [C9P] | 5.54
QSSGKILLAPLCQEEEQAETPMAP [C9A] | 5.01
QSSGKILLYPLCQEEEQAETPMAP [C9Y] | 4.36
QSSGKILLHPLCQEEEQAETPMAP [C9H] | 5.15
QSSGKILLSPLCQEEEQAETPMAP [C9S] | 5.41
QSSGKILLRPLCQEEEQAETPMAP [C9R] | 5.71
QSSGKILLCPLCGEEEQAETPMAP [Q13G] | 3.46
QSSGKILLCPLCIEEEQAETPMAP [Q13I] | 3.26
QSSGKILLCPLCPEEEQAETPMAP [Q13P] | 4.49
QSSGKILLCPLCHEEEQAETPMAP [Q13H] | 2.95
QSSGKILLCPLCREEEQAETPMAP [Q13R] | 2.69
QSSGKILLCPLCNEEEQAETPMAP [Q13N] | 3.65
QSSGKILLCPLCAEEEQAETPMAP [Q13A] | 2.77
QSSGKILLCPLCTEEEQAETPMAP [Q13T] | 2.69
QSSGKILLCPLCKEEEQAETPMAP [Q13K] | 3.85
QSSGKILLCPLCSEEEQAETPMAP [Q13S] | 3.54
QSSGKILLCPLCFEEEQAETPMAP [Q13F] | 2.61

Variant | protein stability index
QSSGKILLCPLCYEEEQAETPMAP [Q13Y] | 3.31
QSSGKILLCPLCDEEEQAETPMAP [Q13D] | 4.25
QSSGKILLCPLCMEEEQAETPMAP [Q13M] | 2.84
QSSGKILLCPLCWEEEQAETPMAP [Q13W] | 2.35
QSSGKILLCPLCVEEEQAETPMAP [Q13V] | 3.91
QSSGKILLCPLCEEEEQAETPMAP [Q13E] | 4.64
QSSGKILLCPLCLEEEQAETPMAP [Q13L] | 3.12
QSSGKILLCPLCCEEEQAETPMAP [Q13C] | 2.79
QSSSKILLCPLCQEEEQAETPMAP [G4S] | 2.86
QSSTKILLCPLCQEEEQAETPMAP [G4T] | 3.66
QSSVKILLCPLCQEEEQAETPMAP [G4V] | 2.94
QSSWKILLCPLCQEEEQAETPMAP [G4W] | 2.21
QSSYKILLCPLCQEEEQAETPMAP [G4Y] | 3.4
QSSGKILLCPLCQIEEQAETPMAP [E14I] | 2.54
QSSGKILLCPLCQTEEQAETPMAP [E14T] | 2.46
QSSGKILLCPLCQYEEQAETPMAP [E14Y] | 2.5
QSSGKILLCPLCQNEEQAETPMAP [E14N] | 3.32
QSSGKILLCPLCQREEQAETPMAP [E14R] | 3.3
QSSGKILLCPLCQFEEQAETPMAP [E14F] | 1.73
QSSGKILLCPLCQKEEQAETPMAP [E14K] | 3.14
QSSGKILLCPLCQDEEQAETPMAP [E14D] | 3.69
QSSGKILLCPLCQQEEQAETPMAP [E14Q] | 2.55
QSSGKILLCPLCQMEEQAETPMAP [E14M] | 2.14
QSSGKILLCPLCQAEEQAETPMAP [E14A] | 2.43

Variant | protein stability index
QSSGKILLCPLCQWEEQAETPMAP [E14W] | 1.73
QSSGKILLCPLCQCEEQAETPMAP [E14C] | 2.55
QSSGKILLCPLCQPEEQAETPMAP [E14P] | 3.39
QSSGKILLCPLCQVEEQAETPMAP [E14V] | 2.75
QSSGKILLCPLCQGEEQAETPMAP [E14G] | 3.64
QSSGKILLCPLSQEEEQAETPMAP [C12S] | 5.23
QSSGKILLCPLEQEEEQAETPMAP [C12E] | 5.46
QSSGKILLCPLWQEEEQAETPMAP [C12W] | 3.75
QSSGKILLCPLHQEEEQAETPMAP [C12H] | 4.66
QSSGKILLCPLMQEEEQAETPMAP [C12M] | 4.86
QSSGKILLCPLLQEEEQAETPMAP [C12L] | 4.18
QSSGKILLCPLKQEEEQAETPMAP [C12K] | 4.93
QSSGKILLCPLNQEEEQAETPMAP [C12N] | 4.99
QSSGKILLCPLQQEEEQAETPMAP [C12Q] | 5.09
QSSGKILLCPLPQEEEQAETPMAP [C12P] | 5.04
QSSGKILLCPLIQEEEQAETPMAP [C12I] | 4.68
QSSGKILLCPLVQEEEQAETPMAP [C12V] | 4.62
QSSGKILLCPLDQEEEQAETPMAP [C12D] | 4.87
QSSGKILLCPLYQEEEQAETPMAP [C12Y] | 4.54
QSSGKILLCPLAQEEEQAETPMAP [C12A] | 4.22
QSSGKILLCPLTQEEEQAETPMAP [C12T] | 5.43
QSSGKILLCPLFQEEEQAETPMAP [C12F] | 4.81
